Assay results: US20070178464A1

Biological target: Probe II: N-terminal domains of Rluc and DnaE with nuclear localization signal (expressed from pcRDn-NLS) (Renilla; blue-green algae, PCC6803 strain) (UniProt P27652)
Test: cell-based or functional assay

Probe II: N-terminal domains of Rluc and DnaE with nuclear localization signal (expressed from pcRDn-NLS) (Renilla; blue-green algae, PCC6803 strain), sequence (P27652 whole entry, the tested form may be a part): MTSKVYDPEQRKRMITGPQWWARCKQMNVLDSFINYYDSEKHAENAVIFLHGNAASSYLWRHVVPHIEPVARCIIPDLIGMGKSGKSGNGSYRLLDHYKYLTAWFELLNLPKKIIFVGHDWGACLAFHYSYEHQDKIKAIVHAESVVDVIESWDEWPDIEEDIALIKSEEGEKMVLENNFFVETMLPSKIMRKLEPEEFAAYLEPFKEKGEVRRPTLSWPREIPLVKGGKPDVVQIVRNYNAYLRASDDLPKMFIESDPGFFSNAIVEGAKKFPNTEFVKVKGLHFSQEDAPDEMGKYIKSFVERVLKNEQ

Probe I: AR connected to the C-terminal domains of RLuc and DnaE (expressed from pcDRc-AR) (from UniProt P27652 230-311; P10275 1-918)
luminescence intensity (cooled CCD image of mice implanted with transfected COS-7 cells): 20 times
